{"source": "patent US20060024313", "proteins": {"B1": {"name": "endogenous DPP-IV purified from human semen (sDPP-IV) (protein)", "chain": "SRKTYTLTDYLKNTYRLKLYSLRWISDHEYLYKQENNILVFNAEYGNSSVFLENSTFDEFGHSINDYSISPDGQFILLEYNYVKQWRHSYTASYDIYDLNKRQLITEERIPNNTQWVTWSPVGHKLAYVWNNDIYVKIEPNLPSYRITWTGKEDIIYNGITDWVYEEEVFSAYSALWWSPNGTFLAYAQFNDTEVPLIEYSFYSDESLQYPKTVRVPYPKAGAVNPTVKFFVVNTDSLSSVTNATSIQITAPASMLIGDHYLCDVTWATQERISLQWLRRIQNYSVMDICDYDESSGRWNCLVARQHIEMSTTGWVGRFRPSEPHFTLDGNSFYKIISNEEGYRHICYFQIDKKDCTFITKGTWEVIGIEALTSDYLYYISNEYKGMPGGRNLYKIQLSDYTKVTCLSCELNPERCQYYSVSFSKEAKYYQLRCSGPGLPLYTLHSSVNDKGLRVLEDNSALDKMLQNVQMPSKKLDFIILNETKFWYQMILPPHFDKSKKYPLLLDVYAGPCSQKADTVFRLNWATYLASTENIIVASFDGRGSGYQGDKIMHAINRRLGTFEVEDQIEAARQFSKMGFVDNKRIAIWGWSYGGYVTSMVLGSGSGVFKCGIAVAPVSRWEYYDSVYTERYMGLPTPEDNLDHYRNSTVMSRAENFKQVEYLLIHGTADDNVHFQQSAQISKALVDVGVDFQAMWYTDEDHGIASSTAHQHIYTHMSHFIKQCFSLP"}, "B2": {"name": "recombinant wild-type human DPP-IV (rDPP-IV), amino acids 39 to 766, secreted from baculovirus-infected Hi5 insect cells (protein)", "chain": "SRKTYTLTDYLKNTYRLKLYSLRWISDHEYLYKQENNILVFNAEYGNSSVFLENSTFDEFGHSINDYSISPDGQFILLEYNYVKQWRHSYTASYDIYDLNKRQLITEERIPNNTQWVTWSPVGHKLAYVWNNDIYVKIEPNLPSYRITWTGKEDIIYNGITDWVYEEEVFSAYSALWWSPNGTFLAYAQFNDTEVPLIEYSFYSDESLQYPKTVRVPYPKAGAVNPTVKFFVVNTDSLSSVTNATSIQITAPASMLIGDHYLCDVTWATQERISLQWLRRIQNYSVMDICDYDESSGRWNCLVARQHIEMSTTGWVGRFRPSEPHFTLDGNSFYKIISNEEGYRHICYFQIDKKDCTFITKGTWEVIGIEALTSDYLYYISNEYKGMPGGRNLYKIQLSDYTKVTCLSCELNPERCQYYSVSFSKEAKYYQLRCSGPGLPLYTLHSSVNDKGLRVLEDNSALDKMLQNVQMPSKKLDFIILNETKFWYQMILPPHFDKSKKYPLLLDVYAGPCSQKADTVFRLNWATYLASTENIIVASFDGRGSGYQGDKIMHAINRRLGTFEVEDQIEAARQFSKMGFVDNKRIAIWGWSYGGYVTSMVLGSGSGVFKCGIAVAPVSRWEYYDSVYTERYMGLPTPEDNLDHYRNSTVMSRAENFKQVEYLLIHGTADDNVHFQQSAQISKALVDVGVDFQAMWYTDEDHGIASSTAHQHIYTHMSHFIKQCFSLP"}, "B3": {"name": "DPP-IV H750A mutant (protein)", "chain": "SRKTYTLTDYLKNTYRLKLYSLRWISDHEYLYKQENNILVFNAEYGNSSVFLENSTFDEFGHSINDYSISPDGQFILLEYNYVKQWRHSYTASYDIYDLNKRQLITEERIPNNTQWVTWSPVGHKLAYVWNNDIYVKIEPNLPSYRITWTGKEDIIYNGITDWVYEEEVFSAYSALWWSPNGTFLAYAQFNDTEVPLIEYSFYSDESLQYPKTVRVPYPKAGAVNPTVKFFVVNTDSLSSVTNATSIQITAPASMLIGDHYLCDVTWATQERISLQWLRRIQNYSVMDICDYDESSGRWNCLVARQHIEMSTTGWVGRFRPSEPHFTLDGNSFYKIISNEEGYRHICYFQIDKKDCTFITKGTWEVIGIEALTSDYLYYISNEYKGMPGGRNLYKIQLSDYTKVTCLSCELNPERCQYYSVSFSKEAKYYQLRCSGPGLPLYTLHSSVNDKGLRVLEDNSALDKMLQNVQMPSKKLDFIILNETKFWYQMILPPHFDKSKKYPLLLDVYAGPCSQKADTVFRLNWATYLASTENIIVASFDGRGSGYQGDKIMHAINRRLGTFEVEDQIEAARQFSKMGFVDNKRIAIWGWSYGGYVTSMVLGSGSGVFKCGIAVAPVSRWEYYDSVYTERYMGLPTPEDNLDHYRNSTVMSRAENFKQVEYLLIHGTADDNVHFQQSAQISKALVDVGVDFQAMWYTDEDHGIASSTAHQAIYTHMSHFIKQCFSLP"}}}
{"target": "P27487"}
{"protein": "B1", "specific activity after serial dilution (H-Gly-Pro-pNA hydrolysis)": "no decrease in specific activity were observed for either sDPP-IV or rDPP-IV even at a concentration as low as 1.6 nM"}
{"protein": "B2", "specific activity after serial dilution (H-Gly-Pro-pNA hydrolysis)": "no decrease in specific activity were observed for either sDPP-IV or rDPP-IV even at a concentration as low as 1.6 nM"}
{"protein": "B3", "specific activity after serial dilution (H-Gly-Pro-pNA hydrolysis)": "the specific activity of H750A protein was also constant over the range of 200 nM to 1.6 nM"}
